Assay [1] concerns pSTAT3 in MDA468 cells. Put plainly: Western blot for phosphorylation of STAT3. The class given is cell-based, human. The settings on record: MDA468, low SEMA7A. The source says:
(§1) In another exemplary method the human triple negative breast cancer cell lines with low (MDA468) or high (MDA231) levels of SEMATA were again treated with SmAbH1 (CUH1) or commercially available monoclonal antibody-based inhibitors of an integrin receptor for SEMA7A (α6β1) and then evaluated using Western blot for phosphorylation of STAT3 (pSTAT3).

Assay [2] relates to pSTAT3 in MDA231 cells. Description: Western blot for phosphorylation of STAT3. The class given is cell-based, human. To be noted: MDA231, high SEMA7A.
Source text: as §1

The test system of assay [3] is activated T cells in the tumors. Description: Flow cytometry of immune cells in treated tumors. To be noted: IFNg and TNFa on CD8+ T cells. The class given is in vivo, mouse. How it is done: For initial in vivo studies with SmABHI. SEMA7A OE E0771 mouse mammary carcinoma cells were injected into mice. Twenty days after carcinoma cells were injected. SmAbH1 (e.g., 12 ug) was administered intraperitoneally to the mice every three days until day 36 post-carcinoma cell injection. Tissues were collected at day 36. Tumors, lungs, and LNs were harvested and processed for IHC and flow cytometry to determine the effect of SEMA7A mAb therapy on cells of the tumor microenvironment (TME). In an additional experiment, tumors were treated at day 28 post-injection with a novel SEMA7A directed antibody, monoclonal antibody clone H1. Fully regressed tumors were removed from treatment at day 50) and the animals were re-challenged with an additional tumor inoculation at day 90 to assess SEMA7A mAb effects. […]
Tumors were separated from the mammary gland and placed in six-well plates with 2 mL of Click's media without mercaptoethanol or L-glutamine (Irvine Scientific, Santa Ana, CA), where they were minced with scalpels, digested with 500 units/ml collagenase type II and IV and 20 μg/ml DNase (Worthington Biochemical Corporation, Lakewood, NJ) and incubated for 1 h at 37° C. […] Geometric mean fluorescence intensity (gMFI) was calculated with FlowJo software. […] Cells were then stained with CD8, CD45, CD4, Gating was determined based on unstimulated controls. […]
(In general: In flow cytometry, cells or beads pass a laser one at a time.)

Assay [4] concerns human breast cancer MCF7A SEMA7A overexpressing cells. Description: Immunofluorescence labeling of TAPI-1 treated SEMA7A overexpressing cells. The class given is cell-based. To be noted: antibody 250:1, FITC secondary, cells treated with TAPI-1. How it is done: In another exemplary method, the ability of anti-SEMA7A monoclonal antibodies to bind and label cells was tested. In an exemplary method, human breast cancer MCF7A SEMA7A overexpressing cells were treated with TAPI-1, a TACE/ADAM17 inhibitor that blocks SEMA7A shedding from the cell surface, and then incubated with an anti-SEMA7A monoclonal antibody (250:1) before visualization with a FITC secondary antibody (1000:1).
Cells were fixed with 2% PFA or 1:1 acetone-methanol for 30 minutes at 4C, before washing once with PBS and blocking with 1% BSA in PBST for 1 hour at room temperature. After removal of the blocking solution, cells were incubated in primary antibody in 1% BSA in PBST overnight at 4° C. The primary antibody (SmAbH1 (lot 022823) was prepared at a 1:250 concentration by adding 4 μL stock solution to ImL 1% BSA in PBS. After primary removal cells were washed with PBS for 10 min×3 and incubated in secondary antibody in 1% BSA in PBS for 1-2 hours at room temperature (covered from light). The secondary antibody (Donkey anti-Mouse IgG Alexa Fluor 488 (Invitrogen A-21202)) was prepared at 1:1000 concentration by adding 1 μL into ImL 1% BSA in PBS. After removal of secondary antibody cells were washed with PBS for 10 min×3. VECTASHIELD Antifade Mounting Medium with DAPI (Vector Labs H-1200-10) was added and the cells were sealed with a glass coverslip. […]

Experimental findings from US20250206839A1, “METHODS, COMPOSITIONS AND USES FOR SEMA7A MONOCLONAL ANTIBODIES” (THE REGENTS OF THE UNIVERSITY OF COLORADO, A BODY CORPORATE, priority 2022, published 2025) are described below.

B1: SmAbH1: mouse monoclonal antibody against SEMA7A generated using the 10-mer immunizing peptide … (SEQ ID NO: 2) (antibody, V domains shown)
VH: QVKLQESGTVLARPGASVKMSCKASVYSFTSYWMHWVKQRPGQGLEWIGAIYPGNSDTSYNQKFKGKAKLTAVTSASTAYMELSSLTNEDSAVYYCTRGGAPTMITAYYAMDYWGQGTSVTVSS
VL: DIQMTQTTSSLSASLGDRVTISCRASQDISNYLNWYQQKPDGTVKLLIYYTSRLHSGVPSRFSGSGSGTDYSLTISNLEQEDIATYFCQQGNTLPWTFGGGTKLEIKR
As to B1, the “downstream STAT3 activation (pSTAT3)” value in assay [1] and in assay [2] was “blocking block downstream STAT3 activation similar to integrin blockade” in each case. The “activated T cells in the tumors” value in assay [3] is “increased presence of activated T cells”. Further, the labeling of cells entry in assay [4] is on record as “labeled the cell lines treated with TAPI-I”.
